Data as given in patent publication EP1444995A1.

Target: endogenous Translokin of mouse NIH-3T3 cells (mouse) (UniProt Q8CEE0)
Experiment: cell-based or functional assay

Chain of UniProt Q8CEE0 (Q8CEE0 whole entry): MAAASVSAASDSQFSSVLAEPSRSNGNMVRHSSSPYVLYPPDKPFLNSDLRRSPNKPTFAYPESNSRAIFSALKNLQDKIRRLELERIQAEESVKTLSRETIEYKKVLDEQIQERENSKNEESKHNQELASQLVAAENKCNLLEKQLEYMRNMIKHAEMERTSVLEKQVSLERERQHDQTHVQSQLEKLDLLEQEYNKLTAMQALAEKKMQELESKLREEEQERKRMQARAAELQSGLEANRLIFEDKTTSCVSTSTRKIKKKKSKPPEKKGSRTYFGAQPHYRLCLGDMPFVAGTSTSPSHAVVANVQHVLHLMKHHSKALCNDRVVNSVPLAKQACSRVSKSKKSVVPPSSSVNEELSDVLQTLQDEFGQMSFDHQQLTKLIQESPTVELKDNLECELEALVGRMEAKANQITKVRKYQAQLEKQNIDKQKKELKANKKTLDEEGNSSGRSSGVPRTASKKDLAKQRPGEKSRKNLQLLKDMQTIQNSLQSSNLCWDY

- FGF-2 nuclear accumulation in NIH-3T3 cells after Translokin siRNA: 80%
Substance: HA-tagged FGF-2 (18 kDa) (ligand)
